{"source": "paper PMC3273806", "key": {"[1]": {"biological_target": "untagged RAD18 expressed in human cells (human) (UniProt Q9NS91)", "sequence (Q9NS91 whole entry)": "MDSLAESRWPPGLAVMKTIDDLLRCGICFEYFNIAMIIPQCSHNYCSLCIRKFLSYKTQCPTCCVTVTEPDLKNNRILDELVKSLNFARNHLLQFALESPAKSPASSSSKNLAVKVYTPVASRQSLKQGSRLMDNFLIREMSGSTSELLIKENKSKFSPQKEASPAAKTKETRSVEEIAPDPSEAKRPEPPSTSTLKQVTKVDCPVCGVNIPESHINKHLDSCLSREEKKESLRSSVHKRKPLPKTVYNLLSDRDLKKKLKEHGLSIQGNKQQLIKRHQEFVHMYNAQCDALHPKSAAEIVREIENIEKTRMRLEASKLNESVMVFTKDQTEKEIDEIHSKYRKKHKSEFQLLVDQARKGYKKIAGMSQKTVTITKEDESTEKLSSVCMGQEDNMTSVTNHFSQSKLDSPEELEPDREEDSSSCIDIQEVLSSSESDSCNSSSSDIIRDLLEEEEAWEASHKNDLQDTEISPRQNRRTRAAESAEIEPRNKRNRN", "assay": "quantitative western blotting against a reference complex"}, "[2]": {"biological_target": "human RAD18, wild type, His-tagged or FLAG-tagged (human) (UniProt Q9NS91)", "sequence (Q9NS91 whole entry)": "as above", "assay": "quantitative SDS-PAGE"}, "[3]": {"biological_target": "RAD18^ΔC1 (residues 1-341), His-tagged or FLAG-tagged (human) (UniProt Q9NS91)", "sequence (Q9NS91 1-341, stated change not applied)": "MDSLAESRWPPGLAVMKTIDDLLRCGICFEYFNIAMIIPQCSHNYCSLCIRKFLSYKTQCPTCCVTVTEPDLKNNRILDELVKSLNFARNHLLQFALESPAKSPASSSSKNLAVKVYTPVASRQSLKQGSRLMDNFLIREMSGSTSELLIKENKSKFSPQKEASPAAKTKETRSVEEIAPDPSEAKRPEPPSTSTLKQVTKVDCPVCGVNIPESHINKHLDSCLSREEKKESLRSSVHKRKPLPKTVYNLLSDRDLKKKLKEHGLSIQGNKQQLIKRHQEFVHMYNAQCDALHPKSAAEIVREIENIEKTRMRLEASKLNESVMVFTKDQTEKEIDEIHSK", "assay": "quantitative SDS-PAGE"}, "[4]": {"biological_target": "FLAG-tagged RAD18 expressed in human cells (human) (UniProt Q9NS91)", "sequence (Q9NS91 whole entry)": "as the sequence (Q9NS91 whole entry) above", "assay": "quantitative western blotting against a reference complex"}, "[5]": {"biological_target": "^HisRAD18^ΔN1 (residues 113-495) (human) (UniProt Q9NS91)", "sequence (Q9NS91 113-495, stated change not applied)": "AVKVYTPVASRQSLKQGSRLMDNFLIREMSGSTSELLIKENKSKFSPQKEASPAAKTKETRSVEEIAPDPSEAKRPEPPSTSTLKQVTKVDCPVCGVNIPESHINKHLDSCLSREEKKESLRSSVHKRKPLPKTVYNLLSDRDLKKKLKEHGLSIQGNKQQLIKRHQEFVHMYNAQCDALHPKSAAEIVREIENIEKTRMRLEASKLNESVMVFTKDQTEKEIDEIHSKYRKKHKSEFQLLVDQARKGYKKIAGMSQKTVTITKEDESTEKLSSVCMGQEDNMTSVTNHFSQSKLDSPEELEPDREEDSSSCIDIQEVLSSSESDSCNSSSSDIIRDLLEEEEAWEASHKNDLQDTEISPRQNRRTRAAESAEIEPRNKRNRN", "assay": "quantitative SDS-PAGE"}}, "data": [{"substance": "untagged RAD6A expressed in human cells (from UniProt P49459 1-152) (enzyme)", "values": [{"measurement": "stoichiometry N (RAD6A per RAD18)", "setting": "[1]", "result": 0.5}]}, {"substance": "untagged RAD18 expressed in human cells (from UniProt Q9NS91 1-495) (enzyme)", "values": [{"measurement": "stoichiometry N", "setting": "[1]", "result": 2}]}, {"substance": "FLAG-tagged human RAD6A (from UniProt P49459 1-152) (enzyme)", "values": [{"measurement": "stoichiometry N (RAD6A per RAD18)", "setting": "[2]", "result": 0.5}]}, {"substance": "human RAD18, wild type, His-tagged or FLAG-tagged (from UniProt Q9NS91 1-495) (enzyme)", "values": [{"measurement": "stoichiometry N (FLAGRAD18 per HisRAD18ΔC1)", "setting": "[3]", "result": 1}, {"measurement": "ratio of HisRAD18 to FLAGRAD18 in the complex (HisRAD18 per FLAGRAD18)", "setting": "[2]", "result": 1}]}, {"substance": "HA-tagged RAD6A expressed in human cells (from UniProt P49459 1-152) (enzyme)", "values": [{"measurement": "stoichiometry N (RAD6A per RAD18)", "setting": "[4]", "result": 0.5}]}, {"substance": "human RAD6A (from UniProt P49459 1-152) (enzyme)", "values": [{"measurement": "stoichiometry N (RAD6A per HisRAD18ΔN1)", "setting": "[5]", "result": 1}]}, {"substance": "FLAG-tagged RAD18 expressed in human cells (from UniProt Q9NS91 1-495) (enzyme)", "values": [{"measurement": "stoichiometry N", "setting": "[4]", "result": 2}]}]}
